Residue numbers refer to the chain shown, from its start.
B1: ADI-41496 (antibody, V domains shown)
VH: QVQLVQSGAEVKKPGASVKVSCKASGYTFTSDDINWVRQATGQGLEWMGWMNPNSGDTGYAQKFQGRVTMTRDTSISTAYMELSSLRSEDTAVYYCARVRIQCSGGRCSYWFFDLWGRGTLVTVSS
VL: QSALTQPASVSGSPGQSITISCIGTSSDVGNYNLVSWYQHHPGKAPKVMIYEVNERPSGVSNRFSGSKSGNTASLTISGLQAEDEADYYCCSYAGRSTWVFGGGTKLTVL
B2: ADI-41492 (antibody, V domains shown)
VH: QVQLVQSGAEVRKPGSSVKVSCKASGGTFNSFVISWVRQAPGQGLEWMGRIIPILATVDYAQKFQGRVTITADKSTTTAYMELSGLTSEDTAVYYCARDPPRWDTTMADYYYQGMDVWGQGTTVTVSS
VL: DIRVTQSPASLSAFVGDRVTISCRASQSIGSFLNWYQQKPGKAPKLLIYAASSLQSGVPSRFSGSGSGTDFTLAISSLQPEDFATYYCQQSYRSTPTFGGGTKVEIK
B3: ADI-41481 (antibody, V domains shown)
VH: QVQLVESGPGLVKPSETLSLACSVSGVSISTYYWTWIRQPPGKGLEWIGYISYSGSTNYNPSLKSRVTISADTSKNQFSLRLNSVTAADTAVYYCARTYYDFWSTYYGEFDHWGHGTLVTVSS
VL: SYELTQPLSVSVALGQTARITCGGNNIESKNVHWYQQKPGQAPVVVMYRDTNRPSGIPERFSGSNSGNTATLTISRAQAGDEADYYCQVWDSGTAGVVFGGGTKVTVL
notes: also called Ab 763; Antibody Number 763
B4: ADI-41499 (antibody, V domains shown)
VH: EVQLVESGGVVVQPGGSLRLSCAASGFSFDDYTMYWVRQAPEKGLEWISLISWNGGVTYYPDSVKGRFTVSRDNNKNSLYLQMDSLRPEDSAFYYCAKESLESSGHFLDYWGQGTLVTVSS
VL: QPVLTQSRSVSGSPGQSVTISCIGTNSDVGGYHYVSWFQHHPGKAPKLMIYDVSRRPSGVPARFSGSKSGNTASLSISGLRAEDEADYYCCSFAGTYTPYVFGTGTKLTVL
B5: ADI-41486 (antibody, V domains shown)
VH: QVQLQQWGAGLLKPSETLSLTCSVYGGSFSGYYWSWIRQPPGKGLEWIGEINHSGSTNYNPSLKSRITISVDTSKNQFSLKLNSVTAADTAVYYCARGDYAFVTFDYWGQGTLVTVSS
VL: QSVLTQPASVSGSPGQSITISCTGTSSDVGGYNYVSWYQQHPGKAPKLMIYEVSNRPSGVSNRFSGSKSGNTASLTISGLQAEDEADYYCSSYTSSSTPVFGGGTKLTVL
notes: also called Ab 767; Antibody Number 767
B6: ADI-41494 (antibody, V domains shown)
VH: EVQLVESGGGLVQPGRSLRLSCTTSGFTFGDYAVTWVRQAPGKGLEWIGIMKSKTYRGTTDYAASLRGRFSISRDDSKSIAYLQMTSLKSEDTGVYYCVRGHDYGDPFDYWGQGTLVTVSS
VL: B5 VL with T25G, G31Y, M49L, E52D, S54N, N62D, A82P, S95R, S97R, P99W
notes: also called Ab 774; Antibody Number 774
B7: ADI-41503 (antibody, V domains shown)
VH: EVQLLESGGGLVQPGGSLRLSCAASGFTFSDFPLSWVRQAPGKGLVWVSAISSSGGDTYYADSVKGRFTISRDSSKNALYLQMNSLRAEDTAVYYCAKGQELLRPYYYGMDVWGQGTTVTVSS
VL: B5 VL with V3A, T5I, Y34F, Y51F, N62H, Y93C, S96R, S97F, P99Y, G103T
B8: ADI-41482 (antibody, V domains shown)
VH: QVQLVQSGAEVKKPGSSVKVSCKASGGTFGSYTINWVRQAPGQGLEWMGGIIPIFGATNYAQNFQGRVSITADKSTATAYMDLISLRSEDTAVYYCARLGRSSPLNSCTTTSCYFWGRGMDVWGQGTTVTVSS
VL: QSVLIQPASVSGSPGQSITISCTGTISDVGIYNYVSWYQQHPGKAPKLIISDVSDRPSGVSNRFSGSKSGITASLTITGLQAEDEADYYCSSYSSSSTLYVFGTGTKLTVL
B9: ADI-41498 (antibody, V domains shown)
VH: EVQLLESGGGLVKPGGSLRLSCAASGFIFSDYAMNWVRQTPGKGLEWVSSISDSSAYKYYTGSVSGRFTISRDNAKNSLYLQMNDLRPEDTAVFYCARGQWRCSGASCYSPFDSWGQGTLVTVSS
VL: SYELTQPPSVSVAPGQTARIPCGGNNIESKNVHWYQQKPGQAPVLVVYDDSDRPSGIPERFSGSNSGSTATLTISRVEAGDEADYYCHVWHRSGDLREVFGSGTKVTVL
notes: also called Ab 778; Antibody Number 778
B10: ADI-41502 (antibody, V domains shown)
VH: QVQLVQSGAEVKKPGSSVKVSCKASGGPFSSDAMSWVRQAPGQGLEWMGGIIPILGSATYAQKFKGRVTIAADESTSTSYMELSGLKYEDTAVYYCARPFYDPLTGYFDTFNVWGQGTTVTVSS
VL: QSVLTQPRSVPGSPGQSVTISCTGTSGDVGGYNYVSWYQQHPGKAPKLVIYDVTKRPSGVPDRFSGSKSGNRASLTISGLQAEDEADYYCCSYAGSQTGYVFGTGTKVTVL
notes: also called Ab 781; Antibody Number 781
B11: ADI-41495 (antibody, V domains shown)
VH: QVQLVQSGGGLVEPGGSLRLSCAASGFTFSNTWMNWVRQAPGKGLTWVGRIKRKTDFGTSDYAAPVKGRFTISRDDSKNMVFLQMNSLKIEDTGVYYCTTHPRPYLDTTAVVYWGQGTLVTVSS
VL: QPVLTQPHSVSESPGKTVTISCIGSSGSITSNYVQWFQQRPGSAPTTVIYEDDQRPSGVPDRFSGSIDSSSNSASLTISGLKTEDEADYYCQSYHHTNPWVFGGGTKLTVL
B12: ADI-41487 (antibody, V domains shown)
VH: QVQLVESGGGLVKPGGSLRLSCAASGFTFSTYTMNWVRQAPGKGLEWVSSISGSSAYIYYADSVKGRFTISRDNAKNSLFLQMNSLRAEDTAVYYCARLQGLVLPAVMPSYYYYSGMDVWGQGTTVTVSS
VL: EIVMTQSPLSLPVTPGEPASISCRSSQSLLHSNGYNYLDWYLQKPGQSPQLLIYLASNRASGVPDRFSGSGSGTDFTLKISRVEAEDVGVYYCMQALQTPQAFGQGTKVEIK
notes: also called Ab 768; Antibody Number 768
B13: ADI-41475 (antibody, V domains shown)
VH: QVQLQESGPGLVKPSQTLSLTCAISGDSVSSNSAAWNWIRQSPSRGLEWLGRTYYRSKWWTDYAVSVKSRITINPDTSKNQFSLQLNSVTPEDTAVYYCARDPDSGNYFHYYGMDVWGQGTTVTVSS
VL: ETTLTQSPATLSLSPGERATLSCRASQSASSYLAWYQQKPGQAPRLLIYDASKRATGIPARFSGSGSGTDFSLTISSLEPEDFAVYYCQLRSKWPPYTFGQGTKVEIK
B14: ADI-41485 (antibody, V domains shown)
VH: EVQLLESGPGLVRPSETLSLTCTVSGGSLDSGPHYWNWIRQPPGKGLEWIGYIYYSVSTNYNPSLKSRVTISMDTSKNQFSLNLTSVTAADTAVYYCASFQLIYGPQIWGQGKKVTVSS
VL: DIVLTQSPSSVSASVGDRVTITCRASQAISSWLIWSQHKPGKAPKVLIYAASSLQSGVPSRFSGSGSGTDFTLTISSLQPEDFATYYCQQANNFPLTFGGGTKVEIK
B15: ADI-41484 (antibody, V domains shown)
VH: EVQLVESGPGLVKPSEALSLTCTVSGASISSYYWTWIRQSPRKGLEWIGYIYHTGRTNYNPSLKRRVTMSVDWSKNQFSLTLSSVTAADTAVYYCARLKVVPAALESAILEHHFGLDVWGQGTTVTVSS
VL: DIVMTQTPSTLSASIGDRVTLTCRASQSINRWLAWYQQKPGKAPKLLIYKASTLESGVPSRFSGSGSGTEFTLTISGLQPDDFATYYCQQYNNFPYTFGPGTKVDIK
B16: ADI-41480 (antibody, V domains shown)
VH: EVQLLESGPGLVRPSGTLSLTCTVSGDSISGSNWWAWVRQPPGRRLEWIGEIYYRGATDYNSSLKSRVIISVDNSKNQFSLNLRSVTAADTAIYYCARVEKFATSGYYISYFDYWGQGTLVTVSS
VL: DIRVTQSPSSLSASVGDRVTITCRASQSISTYLNWYQHNPGKAPKLLIYAASSLQSGVPSRFSGSGSGTHFTLTISSLQPADFSTYYCQQSYSSPWTFGQGTKVEIK
B17: ADI-41504 (antibody, V domains shown)
VH: EVQLLESGPGLLKTSETLSLTCTVSDGSISGYYWTWIRQPPGKGLECIGYISYSGSTNYSPSLKSRVTISVDTSKNQFSLKLSSVTAADTAVYYCAKIGGYCNPTKCYGWFDPWGQGTLVTVSS
VL: QPVLTQPPSVSGAPGQRVTISCTGSSSNIGAGYDVHWYQQLPGTAPKLLIFGNTNRPSGVPDRFSGSKSGTSASLAITGLQAEDEAAYYCQSYDSSLFYVVLGGGTKLTVL
notes: also called Ab 783; Antibody Number 783
B18: ADI-41497 (antibody, V domains shown)
VH: QVQLVESGGGVVQPGRSLRLSCAASGFTFSNHAMHWVRQAPGKGLEWLSFISYDGGVNFYRDSVKGRFTISRDNSKNTLYLQMSSLRPEDTAVYYCARDRVGRVVGASYYLDYWGRGALVTVSS
VL: QSVVTQPPSVSVAPGQTASITCGGKHIGSKSVHWYQQKPGQSPVLVVHDDSDRPSGILERFSGSNSGNTATLTINRVEAGDEADYYCQVWDNASDHPYVFGPGTKVTVL
B19: ADI-41493 (antibody, V domains shown)
VH: QVQLVQSGAEVKKPGESLKISCKGSGYSFTKYWIGWVRQLPGKGLEWMGIIYPGDSETIYSPSFQGQVTISADKSVSTAYLQWSSLKASDTAMYYCARQTFVFWGESHDAFDIWGQGTTVTVSS
VL: QPVLTQPPSASGSPGQSVTISCTGTSSDVGAHNYVSWYQQHPGKAPKLMIYEVSKRPSGVPDRFSGSKSGNTASLTVSGLQAEDEADYYCSSYAGSNNWVFGGGTKLTVL
notes: also called Ab 773; Antibody Number 773

biological target: RSV F on RSV-A2 virus (Respiratory Syncytial Virus (RSV-A2), UniProt P03420 26-574); assay: cell-based or functional assay

Binder	Neutralization IC50 (RSV subtype A) [µg/mL]
B1	> 25
B2	> 25
B3	0.68
B4	> 25
B5	> 25
B6	> 25
B7	> 25
B8	> 25
B9	> 25
B10	> 25
B11	> 25
B12	> 25
B13	> 25
B14	> 25
B15	> 25
B16	> 25
B17	> 25
B18	> 25
B19	> 25

biological target: RSV prefusion F (preF), DS-Cav1 (Respiratory Syncytial Virus, UniProt P03420 26-513); assay: BLI, IgG on anti-human IgG sensor, 100 nM antigen, 1:1 fit

Binder	Kd [nM]
B1	1.65
B2	182
B3	2.09
B4	1.99
B5	2.86
B6	2.61
B7	3.14
B8	3.37
B9	1.22
B10	1.34
B11	77.2
B12	3.12
B13	12.2
B14	3.01
B15	3.44
B16	4.34
B17	2.8
B18	1.44
B19	0.45

biological target: RSV postfusion F (postF), F ΔFP (Respiratory Syncytial Virus, UniProt P03420 26-513); assay: as above

Binder	Kd [nM]
B1	1.37
B2	54.8
B3	0.443
B4	0.297
B5	0.448
B6	0.44
B7	0.493
B8	1.49
B9	0.22
B10	0.308
B11	57.3
B12	0.754
B13	25.5
B14	1.02
B15	0.782
B16	0.703
B17	0.508
B18	0.268
B19	0.372

— patent US20260258115A1 (MAPP BIOPHARMACEUTICAL, published 2026)
